From patent US20240309113A1 (SUZHOU TRANSCENTA THERAPEUTICS, published 2024)
Where two headings read alike, the source gives them in different places.

T1: Recombinant Human MASP-1 (human, UniProt P48740 20-699, limits assumed)
T1 construct: Bought protein, construct not described
T1 sequence (looked up): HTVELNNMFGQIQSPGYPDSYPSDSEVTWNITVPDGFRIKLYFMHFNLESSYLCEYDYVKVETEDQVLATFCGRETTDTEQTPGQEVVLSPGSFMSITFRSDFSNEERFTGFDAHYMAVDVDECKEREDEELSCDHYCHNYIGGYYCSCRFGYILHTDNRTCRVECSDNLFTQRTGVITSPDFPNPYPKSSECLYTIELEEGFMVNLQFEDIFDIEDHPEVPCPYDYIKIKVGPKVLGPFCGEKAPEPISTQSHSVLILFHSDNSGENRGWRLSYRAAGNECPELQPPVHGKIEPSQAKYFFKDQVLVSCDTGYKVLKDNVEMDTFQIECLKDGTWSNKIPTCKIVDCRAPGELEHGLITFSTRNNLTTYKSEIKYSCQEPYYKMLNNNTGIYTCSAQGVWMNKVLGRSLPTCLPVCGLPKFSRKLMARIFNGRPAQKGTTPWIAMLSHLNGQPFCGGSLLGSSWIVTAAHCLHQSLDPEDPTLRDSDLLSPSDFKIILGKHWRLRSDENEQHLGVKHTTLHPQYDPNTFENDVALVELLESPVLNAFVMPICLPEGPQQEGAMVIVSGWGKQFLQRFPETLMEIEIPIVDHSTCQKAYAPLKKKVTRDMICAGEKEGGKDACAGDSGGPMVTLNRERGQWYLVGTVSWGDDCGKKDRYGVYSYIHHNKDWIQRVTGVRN

T2: Recombinant Human MASP-3 (human, UniProt P48740-2 20-728, limits assumed)
T2 construct: Bought protein, construct not described
T2 sequence (looked up): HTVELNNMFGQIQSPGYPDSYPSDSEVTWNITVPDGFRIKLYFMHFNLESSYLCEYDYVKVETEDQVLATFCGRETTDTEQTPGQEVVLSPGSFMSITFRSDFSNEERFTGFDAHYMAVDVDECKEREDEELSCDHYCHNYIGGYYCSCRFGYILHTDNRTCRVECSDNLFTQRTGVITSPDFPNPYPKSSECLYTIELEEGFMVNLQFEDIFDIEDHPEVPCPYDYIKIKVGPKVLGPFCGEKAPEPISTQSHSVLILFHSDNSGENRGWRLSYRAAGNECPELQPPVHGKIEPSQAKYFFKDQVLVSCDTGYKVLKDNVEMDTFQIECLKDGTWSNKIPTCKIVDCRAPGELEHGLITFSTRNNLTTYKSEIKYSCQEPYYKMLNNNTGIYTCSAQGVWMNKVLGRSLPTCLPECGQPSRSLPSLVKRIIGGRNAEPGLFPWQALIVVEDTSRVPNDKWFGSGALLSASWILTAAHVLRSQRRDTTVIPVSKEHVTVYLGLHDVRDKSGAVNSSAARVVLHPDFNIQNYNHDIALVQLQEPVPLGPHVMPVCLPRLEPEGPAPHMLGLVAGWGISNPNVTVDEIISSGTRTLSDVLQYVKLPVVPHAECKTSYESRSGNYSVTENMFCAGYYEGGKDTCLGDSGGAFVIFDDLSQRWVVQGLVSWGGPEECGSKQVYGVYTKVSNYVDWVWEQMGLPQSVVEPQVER

T3: Recombinant Human Complement Component C1s (human, UniProt P09871 16-688, limits assumed)
T3 construct: Bought protein, construct not described; also called human C1s
T3 sequence (looked up): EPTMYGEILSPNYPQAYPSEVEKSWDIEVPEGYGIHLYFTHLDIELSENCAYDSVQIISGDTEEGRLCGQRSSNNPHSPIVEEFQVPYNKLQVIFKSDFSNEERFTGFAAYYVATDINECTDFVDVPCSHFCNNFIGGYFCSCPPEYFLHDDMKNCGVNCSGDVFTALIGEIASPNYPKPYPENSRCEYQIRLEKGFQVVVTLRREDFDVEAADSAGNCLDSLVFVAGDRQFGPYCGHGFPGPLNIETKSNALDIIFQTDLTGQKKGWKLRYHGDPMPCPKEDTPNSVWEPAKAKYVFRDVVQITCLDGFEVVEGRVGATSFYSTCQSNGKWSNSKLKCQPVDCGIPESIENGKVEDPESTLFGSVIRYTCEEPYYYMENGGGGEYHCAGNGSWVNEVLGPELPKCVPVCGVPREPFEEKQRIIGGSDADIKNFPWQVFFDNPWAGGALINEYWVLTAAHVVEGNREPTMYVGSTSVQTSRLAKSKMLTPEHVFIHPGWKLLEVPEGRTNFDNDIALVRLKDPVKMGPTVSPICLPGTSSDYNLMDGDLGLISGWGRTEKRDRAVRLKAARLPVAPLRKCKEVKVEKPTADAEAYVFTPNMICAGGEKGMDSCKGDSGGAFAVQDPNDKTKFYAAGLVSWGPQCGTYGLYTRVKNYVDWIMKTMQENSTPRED

B1: OMS721 (hIgG4 kappa) (antibody, V domains shown)
VH: QVTLKESGPVLVKPTETLTLTCTVSGFSLSRGKMGVSWIRQPPGKALEWLAHIFSSDEKSYRTSLKSRLTISKDTSKNQVVLTMTNMDPVDTATYYCARIRRGGIDYWGQGTLVTVSS
VL: QPVLTQPPSLSVSPGQTASITCSGEKLGDKYAYWYQQKPGQSPVLVMYQDKQRPSGIPERFSGSNSGNTATLTISGTQAMDEADYYCQAWDSSTAVFGGGTKLTVLR
notes: Benchmark antibody with the variable regions of OMS721 (Narsoplimab) and the constant region of human IgG4; also called OMS721-analog
B2: 129C10 HaLa (129C10-hu) (antibody, human IgG4)
VH: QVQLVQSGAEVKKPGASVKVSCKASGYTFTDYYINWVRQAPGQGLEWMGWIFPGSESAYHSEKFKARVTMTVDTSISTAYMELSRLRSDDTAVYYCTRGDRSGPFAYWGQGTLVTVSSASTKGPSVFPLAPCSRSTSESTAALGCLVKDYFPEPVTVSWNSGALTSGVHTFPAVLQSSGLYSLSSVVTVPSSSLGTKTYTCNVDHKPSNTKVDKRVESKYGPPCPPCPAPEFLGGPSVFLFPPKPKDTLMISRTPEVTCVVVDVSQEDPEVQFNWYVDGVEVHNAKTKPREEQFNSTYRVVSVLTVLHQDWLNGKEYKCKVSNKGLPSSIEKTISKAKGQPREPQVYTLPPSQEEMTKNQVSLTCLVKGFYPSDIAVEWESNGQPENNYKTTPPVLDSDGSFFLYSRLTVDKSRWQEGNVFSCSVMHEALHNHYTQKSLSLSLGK
VL: DVVMTQSPLSLPVTLGQPASISCKSSQSLLYSNGKTYLNWLQQRPGQSPRRLIYLVSKLDSGVPDRFSGSGSGTDFTLKISRVEAEDVGVYYCVQVTHFPFTFGQGTKLEIKRTVAAPSVFIFPPSDEQLKSGTASVVCLLNNFYPREAKVQWKVDNALQSGNSQESVTEQDSKDSTYSLSSTLTLSKADYEKHKVYACEVTHQGLSSPVTKSFNRGEC
notes: Humanized; also called 129C10-hu-WT; Hu129C10_HaLa-hIgG4
B3: 129C10-hu-YTE (Hu129C10 hIgG4_YTE kappa) (antibody)
heavy: QVQLVQSGAEVKKPGASVKVSCKASGYTFTDYYINWVRQAPGQGLEWMGWIFPGSESAYHSEKFKARVTMTVDTSISTAYMELSRLRSDDTAVYYCTRGDRSGPFAYWGQGTLVTVSSASTKGPSVFPLAPCSRSTSESTAALGCLVKDYFPEPVTVSWNSGALTSGVHTFPAVLQSSGLYSLSSVVTVPSSSLGTKTYTCNVDHKPSNTKVDKRVESKYGPPCPPCPAPEFLGGPSVFLFPPKPKDTLYITREPEVTCVVVDVSQEDPEVQFNWYVDGVEVHNAKTKPREEQFNSTYRVVSVLTVLHQDWLNGKEYKCKVSNKGLPSSIEKTISKAKGQPREPQVYTLPPSQEEMTKNQVSLTCLVKGFYPSDIAVEWESNGQPENNYKTTPPVLDSDGSFFLYSRLTVDKSRWQEGNVFSCSVMHEALHNHYTQKSLSLSLGK
light: B2 VL
notes: also called Hu129C10_HaLa-hIgG4 with amino acid substitutions M252Y/S254T/T256E [YTE]

What was measured:
[1] = target: T4, Rat MASP2 (rat, UniProt Q9JJS8); assay: ELISA; plate coated with rat MASP2 (1 ug/ml), serially diluted antibody, mouse anti-human IgG4 Fc HRP, OD450
T4 construct: purchased protein coated on the ELISA plate at 1 ug/ml
T4 sequence (Q9JJS8 20-685 limits assumed): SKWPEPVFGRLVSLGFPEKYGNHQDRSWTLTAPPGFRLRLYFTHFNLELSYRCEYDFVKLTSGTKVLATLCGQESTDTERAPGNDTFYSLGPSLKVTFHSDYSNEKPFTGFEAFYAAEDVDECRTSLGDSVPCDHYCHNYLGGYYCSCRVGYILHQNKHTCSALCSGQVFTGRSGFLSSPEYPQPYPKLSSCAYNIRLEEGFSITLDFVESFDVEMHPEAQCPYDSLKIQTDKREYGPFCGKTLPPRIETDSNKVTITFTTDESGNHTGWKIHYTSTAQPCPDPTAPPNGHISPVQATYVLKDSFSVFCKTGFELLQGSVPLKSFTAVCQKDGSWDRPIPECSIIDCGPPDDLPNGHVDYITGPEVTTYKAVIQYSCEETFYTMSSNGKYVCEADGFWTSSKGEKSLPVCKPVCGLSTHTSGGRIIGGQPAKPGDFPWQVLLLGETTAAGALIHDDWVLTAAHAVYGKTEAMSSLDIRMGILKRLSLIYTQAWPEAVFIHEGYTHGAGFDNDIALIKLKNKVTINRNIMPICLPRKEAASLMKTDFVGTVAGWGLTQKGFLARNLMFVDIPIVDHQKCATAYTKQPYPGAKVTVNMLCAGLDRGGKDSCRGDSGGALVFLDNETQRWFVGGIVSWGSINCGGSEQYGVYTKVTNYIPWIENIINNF

[2] = target: T5, Mouse MASP2 (mouse, UniProt Q91WP0); assay: ELISA; plate coated with mouse MASP2 (1 ug/ml), serially diluted antibody, mouse anti-human IgG4 Fc HRP, OD450
T5 construct: purchased protein coated on the ELISA plate at 1 ug/ml
T5 sequence (Q91WP0 20-685 limits assumed): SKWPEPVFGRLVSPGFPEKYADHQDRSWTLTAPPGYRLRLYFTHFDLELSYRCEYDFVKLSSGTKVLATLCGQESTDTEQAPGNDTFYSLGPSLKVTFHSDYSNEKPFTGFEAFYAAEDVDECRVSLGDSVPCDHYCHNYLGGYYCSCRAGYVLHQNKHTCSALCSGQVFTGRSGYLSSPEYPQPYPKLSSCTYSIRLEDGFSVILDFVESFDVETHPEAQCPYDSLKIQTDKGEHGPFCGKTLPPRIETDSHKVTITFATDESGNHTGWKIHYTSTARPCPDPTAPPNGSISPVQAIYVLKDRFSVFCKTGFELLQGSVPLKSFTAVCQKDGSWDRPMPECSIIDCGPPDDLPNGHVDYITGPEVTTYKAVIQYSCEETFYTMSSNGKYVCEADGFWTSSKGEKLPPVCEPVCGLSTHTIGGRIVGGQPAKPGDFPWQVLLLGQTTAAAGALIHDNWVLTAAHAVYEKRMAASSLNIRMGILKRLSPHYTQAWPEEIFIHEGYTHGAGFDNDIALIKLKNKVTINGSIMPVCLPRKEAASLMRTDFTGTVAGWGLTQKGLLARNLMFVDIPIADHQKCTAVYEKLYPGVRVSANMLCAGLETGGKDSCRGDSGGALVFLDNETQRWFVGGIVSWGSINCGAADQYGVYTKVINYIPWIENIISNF

[3] = target: T6, Cyno MASP2; assay: ELISA; plate coated with cynomolgus MASP2 (1 ug/ml), serially diluted antibody, mouse anti-human IgG4 Fc HRP, OD450
T6 construct: Recombinant coated protein; distinct from m29 (native MASP-2 in cynomolgus serum); also called cynomolgus MASP-2 (recombinant, generated in house)
T6 sequence (MASP-2 polypeptide, as listed by the source limits assumed): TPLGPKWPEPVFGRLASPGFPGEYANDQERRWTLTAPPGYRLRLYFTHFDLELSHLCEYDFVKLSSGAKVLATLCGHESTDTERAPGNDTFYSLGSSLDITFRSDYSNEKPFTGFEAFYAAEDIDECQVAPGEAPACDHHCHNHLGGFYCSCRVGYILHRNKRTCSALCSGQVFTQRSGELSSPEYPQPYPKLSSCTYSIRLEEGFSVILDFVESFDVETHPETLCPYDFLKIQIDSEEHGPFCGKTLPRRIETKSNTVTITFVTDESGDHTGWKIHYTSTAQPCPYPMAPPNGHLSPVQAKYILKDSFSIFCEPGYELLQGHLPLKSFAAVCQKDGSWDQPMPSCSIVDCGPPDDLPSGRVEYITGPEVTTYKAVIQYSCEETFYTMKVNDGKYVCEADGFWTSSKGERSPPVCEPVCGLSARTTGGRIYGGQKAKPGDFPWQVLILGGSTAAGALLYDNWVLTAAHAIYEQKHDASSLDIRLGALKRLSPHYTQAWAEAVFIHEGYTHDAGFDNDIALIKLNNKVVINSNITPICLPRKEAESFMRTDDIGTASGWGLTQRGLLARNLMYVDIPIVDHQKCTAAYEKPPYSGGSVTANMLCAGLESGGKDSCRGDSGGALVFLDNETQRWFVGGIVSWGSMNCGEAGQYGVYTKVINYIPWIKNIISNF

[4] = target: T1, Recombinant Human MASP-1; assay: ELISA; plate coated with recombinant human MASP-1, mouse anti-human IgG4 HRP, OD450
[5] = target: T2, Recombinant Human MASP-3; assay: ELISA; plate coated with recombinant human MASP-3, mouse anti-human IgG4 HRP, OD450
[6] = target: T7, Human FcRn (FCGRT&B2M) protein with His tag (human, UniProt P55899 24-297; P61769 21-119); assay: BLI (ForteBio), His-tagged human FcRn on Ni-NTA biosensor, antibody in solution (500, 167, 56, 19 nM)
T7 construct: Carries a His tag (held on Ni-NTA biosensors)
T7 sequence (P55899 24-297 limits assumed, chain 1 of 2): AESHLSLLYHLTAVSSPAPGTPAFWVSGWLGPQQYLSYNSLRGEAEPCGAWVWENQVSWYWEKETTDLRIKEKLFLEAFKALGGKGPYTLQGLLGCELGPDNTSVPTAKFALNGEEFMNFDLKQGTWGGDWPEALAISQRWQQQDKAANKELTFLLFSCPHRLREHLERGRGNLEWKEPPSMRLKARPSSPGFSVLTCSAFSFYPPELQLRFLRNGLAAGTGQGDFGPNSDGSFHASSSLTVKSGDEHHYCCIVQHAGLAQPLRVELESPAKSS
T7 sequence (P61769 21-119 limits assumed, chain 2 of 2): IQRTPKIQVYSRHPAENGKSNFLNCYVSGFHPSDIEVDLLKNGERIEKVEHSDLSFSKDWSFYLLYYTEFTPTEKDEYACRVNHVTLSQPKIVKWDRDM

[7] = target: T8, human MASP-2 protein (recombinant, full-length, C-terminal tag) (human, UniProt O00187 16-686); assay: BLI (ForteBio Octet RED96), antibody on Protein A biosensor, human MASP-2 in solution (100, 50, 25 nM)
T8 construct: The protein was secreted and purified on an anti-FLAG or anti-HIS column; also called hMASP-2; Full-length human MASP-2 protein; not shown: C-terminal HIS-tag or FLAG-tag
T8 sequence (O00187 16-686): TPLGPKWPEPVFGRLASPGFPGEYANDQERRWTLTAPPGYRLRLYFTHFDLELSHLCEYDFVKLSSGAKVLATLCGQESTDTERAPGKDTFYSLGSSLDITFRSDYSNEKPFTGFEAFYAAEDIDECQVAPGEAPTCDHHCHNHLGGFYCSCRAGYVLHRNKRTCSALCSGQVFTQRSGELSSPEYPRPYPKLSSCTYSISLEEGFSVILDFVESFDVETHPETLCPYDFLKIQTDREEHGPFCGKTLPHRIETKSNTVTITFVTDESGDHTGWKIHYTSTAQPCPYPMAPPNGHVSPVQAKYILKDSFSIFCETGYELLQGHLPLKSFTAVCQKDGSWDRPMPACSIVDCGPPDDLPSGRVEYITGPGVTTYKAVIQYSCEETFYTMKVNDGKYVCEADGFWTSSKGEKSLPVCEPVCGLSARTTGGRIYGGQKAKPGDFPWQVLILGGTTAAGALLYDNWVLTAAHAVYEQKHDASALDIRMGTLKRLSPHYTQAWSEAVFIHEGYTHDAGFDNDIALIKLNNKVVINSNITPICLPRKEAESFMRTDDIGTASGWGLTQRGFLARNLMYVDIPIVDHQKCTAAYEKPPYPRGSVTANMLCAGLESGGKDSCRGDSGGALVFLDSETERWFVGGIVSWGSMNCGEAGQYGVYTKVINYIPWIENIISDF

[8] = target: T8, human MASP-2 protein (recombinant, …); assay: ELISA; plate coated with human MASP2 (1 ug/ml), serially diluted antibody, mouse anti-human IgG4 Fc HRP, OD450
[9] = target: T6, Cyno MASP2; assay: ELISA; plate coated with cynomolgus MASP2 (1 ug/ml), serially diluted antibody, mouse anti-human IgG4 Fc HRP, OD450; remark: listed apart in the source
[10] = target: T3, Recombinant Human Complement Component …; assay: ELISA; plate coated with recombinant human C1s, serially diluted antibody, mouse anti-human IgG4 HRP, OD450 (fit value printed for a flat curve)
[11] = target: T4, Rat MASP2; assay: ELISA; plate coated with rat MASP2 (1 ug/ml), serially diluted antibody, mouse anti-human IgG4 Fc HRP, OD450 (fit value printed for a flat curve)
[12] = target: T5, Mouse MASP2; assay: ELISA; plate coated with mouse MASP2 (1 ug/ml), serially diluted antibody, mouse anti-human IgG4 Fc HRP, OD450 (fit value printed for a flat curve)
[13] = target: T8, human MASP-2 protein (recombinant, …); assay: ELISA; plate coated with human MASP2, serially diluted antibody, anti-human IgG4 HRP, OD at 450nm; concentration axis printed as 'Antibody conc.(nM)'
[14] = target: T7, Human FcRn (FCGRT&B2M) protein with His …; assay: BLI (ForteBio), His-tagged human FcRn on Ni-NTA biosensor

Row | Binder | EC50 [1] [mg/L] | EC50 [2] [mg/L] | EC50 [3] [mg/L] | binding result [4] | binding result [5] | Kd [6] [nM] | koff [6] [s⁻¹] | kon [6] [M⁻¹ s⁻¹] | Kd [7] [nM] | koff [7] [s⁻¹] | kon [7] [M⁻¹ s⁻¹] | EC50 [8] [mg/L] | EC50 [9] [mg/L] | EC50 [10] [mg/L] | EC50 [11] [mg/L] | EC50 [12] [mg/L] | EC50 [13] [nM] | fold increase of binding affinity against 129C10-hu [14] [fold]
1 | B1 | 12.3 | 4.91 | 0.0181 | – | – | – | – | – | – | – | – | – | – | – | – | – | – | –
2 | B2 | – | – | – | no binding (tested: about 2 ug/ml) | no binding (tested: about 2 ug/ml) | 6.1 | 0.00317 | 520000 | < 0.001 | < 1e-07 | 35300 | 0.0127 | 0.0111 | ~1.65 | 17.2 | ~672 | 0.0162 | –
3 | B3 | – | – | – | – | – | 1.88 | 0.00101 | 536000 | – | – | – | – | – | – | – | – | – | 3
